In PMC4234381, “Evolution of Acyl-Substrate Recognition by a Family of Acyl-Homoserine Lactone Synthases” (PLoS ONE, 2014):

Experiments:
BjaI = BjaI (Bradyrhizobium diazoefficiens, UniProt Q89VI2); test: DCPIP microplate assay
Sfp = Sfp (Bacillus subtilis, UniProt P39135); test: enzymatic transfer of octyl-phosphopantetheine to apo-ACP, mass spectrum of product; format: biochemical; settings: co-substrate E. coli apo-AcpP; preparative synthesis, 20:1 acyl-CoA to ACP
purified protein [1] = substrate: CC(C)CC(=O)SCCNC(=O)CCNC(=O)[C@H](O)C(C)(C)COP(=O)(O)OP(=O)(O)OC[C@H]1O[C@@H](n2cnc3c(N)ncnc32)[C@H](O)[C@@H]1OP(=O)(O)O; test: purified protein; settings: 500 µM SAM, 1 µM BjaI, HEPES, final pH 7.3
purified protein [2] = substrate: C[S+](CC[C@H](N)C(=O)O)C[C@H]1O[C@@H](n2cnc3c(N)ncnc32)[C@H](O)[C@@H]1O; test: purified protein; settings: 250 µM isovaleryl-CoA, HEPES, final pH 7.3

Chain of Sfp (P39135 whole entry): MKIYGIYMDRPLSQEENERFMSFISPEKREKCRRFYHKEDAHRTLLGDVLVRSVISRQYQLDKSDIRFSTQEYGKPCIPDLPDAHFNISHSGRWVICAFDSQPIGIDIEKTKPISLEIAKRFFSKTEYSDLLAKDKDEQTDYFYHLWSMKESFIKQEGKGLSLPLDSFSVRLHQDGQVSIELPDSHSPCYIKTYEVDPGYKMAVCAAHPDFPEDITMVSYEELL

Molecule: CC(C)CCSCCNC(=O)CCNC(=O)[C@H](O)C(C)(C)COP(=O)(O)OP(=O)(O)OC[C@H]1O[C@@H](n2cnc3c(N)ncnc32)[C@H](O)[C@@H]1OP(=O)(O)O [isopentyl-CoA]
- Ki (BjaI): 21 ± 1 µM

Molecule: CCCCCCCCSCCNC(=O)CCNC(=O)[C@H](O)C(C)(C)COP(=O)(O)OP(=O)(O)OC[C@H]1O[C@@H](n2cnc3c(N)ncnc32)[C@H](O)[C@@H]1OP(=O)(O)O [octyl-CoA sulfide]
- enzymatic transfer of octyl-phosphopantetheine to apo-ACP, mass spectrum of prod (Sfp): enzymatic transfer of the alkyl-PPant to apo-ACP using Bacillus subtilis Sfp PPant transferase

B1: BjaI (Bradyrhizobium diazoefficiens USDA 110) (protein)
chain: MIHAISAVNRHLYEDVLEQHFRLRHDIFVEERHWETLRRPDGREVDSYDDEDTVYLLALEGRRVVGGHRLYPTTKPSMMSEVFPHLAAVRGCPSDPLIWEWSRYFVVRDRRDGALNLQLMAAVQEFCLDQGIAQVSAIMETWWLPRFHEAGFVVTPLGLPALVENAWTMAATVDIRRQTLDVLHDRIGMPSIVQQDGPRLDAVARANLCGLAAAQRKSA
- Km (purified protein [1]): 7.0 ± 0.5 µM
- kcat (purified protein [1]): 0.021 ± 0.03 s⁻¹
- kcat/Km (purified protein [1]): 3000 M⁻¹ s⁻¹
- Km (purified protein [2]): 39 ± 4 µM
